Km and kcat data for one protein are collected here from paper PMC5605622, “Agdc1p – a Gallic Acid Decarboxylase Involved in the Degradation of Tannic Acid in the Yeast Blastobotrys (Arxula) adeninivorans” (Frontiers in Microbiology, 2017).

Substrate in series [1]: O=C(O)c1cc(O)c(O)c(O)c1
In words: purified protein. It is filed as biochemical, Blastobotrys adeninivorans. To be noted: 50 mM potassium phosphate pH 6.2, 40 °C.

Substrate in series [2]: O=C(O)c1ccc(O)c(O)c1
Nature of the series: purified protein. It is filed as biochemical, Blastobotrys adeninivorans. To be noted: 50 mM potassium phosphate pH 6.2, 40 °C.

B1: Agdc1-6hp (Agdc1p, gallic acid decarboxylase) (Blastobotrys adeninivorans) (protein)
chain: MTTSYEPWPQLYSHLNGTNEEVLDRMKVAELCKGWSVYRDASEWANFKEMFTPDANIWTTWSGAQTIDSFIQISKDGKDKGAFIMHRECGTLVDLNPKTQRAIGKMKTTITQRFEYEGVPFDIDCDNYFIFFCLKDSNGDWKARWYKVFYVKDKFVPVGVPTAENMEKLAKLFSKENLEQYPWGYQYLAVAQANLGYPIDKKLPTWKNELYHTMYDAMKEWMEGKEIDLHW
notes: full-length ORF (696 bp, 232 residues as printed), C-terminal 6xHis tag kept, expressed in A. adeninivorans G1212, IMAC purified
For the protein B1, in “purified protein [1]”, the Km (usually the concentration of substrate that gives half-maximal velocity) was 700 ± 200 µM; the kcat (commonly the number of substrate molecules converted per active site and unit of time at saturation) worked out at 42.0 ± 8.2 s⁻¹. In addition, in the series “purified protein [2]”, the Km was 3200 ± 200 µM and the kcat came out at 44.0 ± 3.4 s⁻¹.
